The test system of series [1] is RFL29a (Rf3) (Triticum aestivum (accession R0934F for the cloned gene; source of the REMSA construct not stated)). The series is described as follows: EMSA. The settings on record: apparent Kd; protein mostly aggregated; 1 nM probe; Binding buffer 1x THE (34 mM Tris, 66 mM HEPES, 0.1 mM EDTA, pH 8), 0.2 M NaCl, 5 mM DTT, 5 mg/mL heparin, 0.1 mg/mL BSA, RNaseOUT (10 uL) + 5 uL protein in ….

For series [2], the system named is RFL79 (Rf1) (Triticum aestivum (accession R197 for the cloned gene; source of the REMSA construct not stated)). As to the kind of experiment: EMSA. The settings on record: apparent Kd; protein mostly aggregated; 1 nM probe; Binding buffer 1x THE (34 mM Tris, 66 mM HEPES, 0.1 mM EDTA, pH 8), 0.2 M NaCl, 5 mM DTT, 5 mg/mL heparin, 0.1 mg/mL BSA, RNaseOUT (10 uL) + 5 uL protein in ….

“CUUCACCUGUGCACUUAUUUAUGUAU [BS RFL29a (orf279)]”: the Kd in series [1] turned out to be 1000 nM.

On to “CUGUAAAUCAAGAAUUCCUCGAAGA [BS RFL79 (orf279)]”, for which the Kd in series [2] was determined as 1000 nM.

(Values after publication PMC7884431.)
